We go through one substance from publication PMC9133036 (Nature Communications, 2022).

For this assay, the target named is T1, full-length wild-type human OX2R (pCDNA3, HEK293) (human) (UniProt O43614).
T1 sequence: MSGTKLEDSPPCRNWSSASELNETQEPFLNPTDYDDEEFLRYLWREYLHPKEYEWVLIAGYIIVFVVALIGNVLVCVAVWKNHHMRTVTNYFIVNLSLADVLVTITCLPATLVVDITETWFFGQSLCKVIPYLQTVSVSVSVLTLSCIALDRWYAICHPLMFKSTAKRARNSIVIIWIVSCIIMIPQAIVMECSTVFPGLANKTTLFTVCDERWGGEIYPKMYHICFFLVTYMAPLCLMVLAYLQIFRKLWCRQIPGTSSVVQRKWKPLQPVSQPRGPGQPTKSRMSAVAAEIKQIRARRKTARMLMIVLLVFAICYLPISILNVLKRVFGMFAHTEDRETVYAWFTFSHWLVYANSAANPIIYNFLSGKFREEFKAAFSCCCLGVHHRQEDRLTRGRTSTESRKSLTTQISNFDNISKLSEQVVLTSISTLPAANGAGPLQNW

Sequence of orexin B (O43612 70-97): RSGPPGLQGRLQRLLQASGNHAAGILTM

Substance “orexin B (from UniProt O43612 70-97) (peptide)” came in with a Gq-mediated inositol phosphate (IP) accumulation in HEK293 cells transfected with OX2R and Gαq; EC50 of orexin B of 8.2 nM.
